In patent US20240034774A1 (Gilead, published 2024):
Changes are numbered by the printed parent chain.

B1: 1.4.1-1 (antibody, human IgG1, kappa)
heavy: QVQLVQSGAAVTKPGASVRVSCEASGYNIRDYFIHWWRQAPGQGLQWVGWINPKTGQPNNPRQFQGRVSLTRHASWDFDTFSFYMDLKALRSDDTAVYFCARQRSDYWDFDVWGSGTQVTVSSASTKGPSVFPLAPSSKSTSGGTAALGCLVKDYFPEPVTVSWNSGALTSGVHTFPAVLQSSGLYSLSSVVTVPSSSLGTQTYICNVNHKPSNTKVDKKVEPKSCDKTHTCPPCPAPELLAGPDVFLFPPKPKDTLMISRTPEVTCVVVDVSHEDPEVKFNWYVDGVEVHNAKTKPREEQYNSTYRVVSVLTVLHQDWLNGKEYKCKVSNKALPLPEEKTISKAKGQPREPQVYTLPPSREEMTKNQVSLTCLVKGFYPSDIAVEWESNGQPENNYKTTPPVLDSDGSFFLYSKLTVDKSRWQQGNVFSCSVLHEALHSHYTQKSLSLSPGK
light: DIQMTQSPSSLSASVGDTVTITCQANGYLNWYQQRRGKAPKLLIYDGSKLERGVPSRFSGRRWGQEYNLTINNLQPEDIATYFCQVYEFVVPGTRLDLKRTVAAPSVFIFPPSDEQLKSGTASVVCLLNNFYPREAKVQWKVDNALQSGNSQESVTEQDSKDSTYSLSSTLTLSKADYEKHKVYACEVTHQGLSSPVTKSFNRGEC
B2: 1.11.1-1 (antibody, human IgG1, kappa)
heavy: B1 heavy with V5L, I34M, F83A
light: B1 light
B3: 1.12.17-1 (antibody, human IgG1, kappa, V domains shown)
VH: QVQLLQSGAAVTKPGASVRVSCEASGYNIRDYFIHWVRQAPGQGLQWVGWINPKTGQPNNPRQFQGRVSLTRHASWDFDTFSFYMDLKALRSDDTAVYFCARQRSDYWDFDVWGSGTQVTVSS
VL: DIQMTQSPSSLSASVGDTVTITCQANGYLNWYQQRRGKAPKLLIYDGSKLERGVPSRFSGRRWGQEYNLTINNLQPEDIATYFCQVYEFFGPGTRLDLKR
B4: 1.9.1-1 (antibody, human IgG1, kappa)
heavy: B1 heavy with A10E, T12K, E23K
light: B1 light
B5: 1.6.1-1 (antibody, human IgG1, kappa)
heavy: B1 heavy with V5L, A10E
light: B1 light
B6: 1.12.15-1 (antibody, human IgG1, kappa)
heavy: B1 heavy with V5L, W37V
light: B1 light with V90F
B7: 1.10.1-1 (antibody, human IgG1, kappa)
heavy: B1 heavy with V5L, I34M
light: B1 light
B8: 1.5.1-1 (antibody, human IgG1, kappa)
heavy: B1 heavy with E23K
light: B1 light
B9: 1.7.1-1 (antibody, human IgG1, kappa)
heavy: B1 heavy with V5L, A10E, T12K
light: B1 light
B10: 1.8.1-1 (antibody, human IgG1, kappa)
heavy: B1 heavy with A10E
light: B1 light

Columns and labels:
BSA = BSA (UniProt P02769 25-607); assay: single-point ELISA, BSA control
gp120 SHIV SF162 P3 = gp120 SHIV SF162 P3 (SHIV SF162 P3); assay: single-point ELISA at EC50 conc. of A-1
gp120 CAAN = gp120 CAAN (HIV (CAAN)); assay: single-point ELISA at EC50 conc. of A-1
gp120 Bal = gp120 Bal (HIV (Bal)); assay: single-point ELISA at EC50 conc. of A-1

Binder | ELISA A450 (BSA) | ELISA A450 (gp120 SHIV SF162 P3) | ELISA A450 (gp120 CAAN) | ELISA A450 (gp120 Bal)
B1 | 0.06 A450 | 1.19 A450 | 0.96 A450 | 1.04 A450
B2 | 0.09 A450 | 0.57 A450 | 0.75 A450 | 0.93 A450
B3 | 0.06 A450 | 0.75 A450 | 0.84 A450 | 0.9 A450
B4 | 0.06 A450 | 1.23 A450 | 0.98 A450 | 1.08 A450
B5 | 0.06 A450 | 1.1 A450 | 0.9 A450 | 0.95 A450
B6 | 0.06 A450 | 0.53 A450 | 0.63 A450 | 0.69 A450
B7 | 0.06 A450 | 1.03 A450 | 0.94 A450 | 0.95 A450
B8 | 0.06 A450 | 1.15 A450 | 1.07 A450 | 0.92 A450
B9 | 0.06 A450 | 1.08 A450 | 1.04 A450 | 0.98 A450
B10 | 0.06 A450 | 0.94 A450 | 0.9 A450 | 0.86 A450
